In article PMC12214560, “NAD-dependent dehydrogenases enable efficient growth of Paracoccus denitrificans on the PET monomer ethylene glycol” (Nature Communications, 2025):

How the values were obtained:
[1] = substrate: CCCO; experiment: purified protein; format: biochemical, Paracoccus denitrificans; details: 100 mM glycine-NaOH pH 10, 2.4 mM NAD+, 30 °C, oxidation
[2] = substrate: OCCO; experiment: purified protein; format: biochemical, Paracoccus denitrificans; details: 100 mM glycine-NaOH pH 10, 2.4 mM NAD+, 30 °C, oxidation
[3] = substrate: O=CCO; experiment: purified protein; format: biochemical, Paracoccus denitrificans; details: 30 °C
[4] = substrate: CCCCO; experiment: purified protein; format: biochemical, Paracoccus denitrificans; details: 100 mM glycine-NaOH pH 10, 2.4 mM NAD+, 30 °C, oxidation
[5] = substrate: CC(O)CO; experiment: purified protein; format: biochemical, Paracoccus denitrificans; details: 100 mM glycine-NaOH pH 10, 2.4 mM NAD+, 30 °C, oxidation
[6] = substrate: CC=O; experiment: purified protein; format: biochemical, Paracoccus denitrificans; details: 30 °C
[7] = substrate: CCO; experiment: purified protein; details: 100 mM glycine-NaOH pH 10, 2.4 mM NAD+, 30 °C, oxidation
[8] = target: the molecule itself; experiment: cryo-EM structure; protein purified by Ni-NTA and size exclusion in buffer C (100 mM sodium chloride, 25 mM potassium phosphate pH 8.0, 1 mM DTT); Titan Krios 300 kV, K3 detector; processed in RELION-5.0; homo-oligomer seen in the map
[9] = 100 mM potassium phosphate pH 7.5, 0.2 mM NADH, reduction
[10] = 100 mM potassium phosphate pH 7.5, 2.4 mM NAD+, oxidation

Row | Protein | Km [2] [µM] | kcat [2] [s⁻¹] | kcat/Km [2] [M⁻¹ s⁻¹] | Km [5] [µM] | kcat [5] [s⁻¹] | kcat/Km [5] [M⁻¹ s⁻¹] | Km [7] [µM] | kcat [7] [s⁻¹] | kcat/Km [7] [M⁻¹ s⁻¹] | stoichiometry N [8] | further results
1 | EtgB, NAD-dependent alcohol dehydrogenase (Pden_2367) (enzyme, Paracoccus denitrificans DSM 413, The enzyme holds zinc ions; also called EtgB WT; alcohol dehydrogenase EtgB; source: E. coli BL21 AI, purified (Ni-NTA, desalting, size exclusion on Superdex 200 Increase)) MAKTMKAAVVREFGKPLTIDEVPVPEPGPGMIQVRIQASGVCHTDLHAAEGDWPVKPNPPFIPGHEGVGFVSAVGAGVKHVKEGDRVGVPWLYTACGHCRHCLGGWETLCESQLNTGYSVNGGFADYVVADPNYVGHLPKNVDFLDIAPVLCAGVTVYKGLKVTDTKPGDWVVISGIGGLGHMAVQYAKAMGMNVAAVDIDDEKLALARKLGATVTVNAATEPDPAAAIRKQTDGGAQGVLVTAVGRKAFEQAIGMVARGGTVALNGLPPGDFPLDIFGMVLNGITVRGSIVGTRLDLQESLDFAGDGKVKATVHKAKLEDINNIFGQMHKGQIEGRMVLDMAG | 11050 ± 1320 | 7.2 ± 0.2 | 651 ± 22 | 59460 ± 3310 | 3.5 ± 0.1 | 59.6 ± 1 | 120 ± 10 | 23.5 | 201000 | 4 | Km [1]: 110 ± 10 µM; kcat [1]: 18.7 ± 0.5 s⁻¹; kcat/Km [1]: 176000 ± 14000 M⁻¹ s⁻¹; Km [3, 9]: 1040 ± 60 µM; kcat [3, 9]: 50.1 ± 1.2 s⁻¹; kcat/Km [3, 9]: 48300 ± 3200 M⁻¹ s⁻¹; Km [4]: 40 ± 10 µM; kcat [4]: 8.4 ± 0.1 s⁻¹; kcat/Km [4]: 213000 ± 14000 M⁻¹ s⁻¹; Km [6, 9]: 40 ± 10 µM; kcat [6, 9]: 158 ± 2.9 s⁻¹; kcat/Km [6, 9]: 3.84e+06 ± 240000 M⁻¹ s⁻¹
2 | EtgB (Paracoccus denitrificans PD1222; H47N) (protein, pET16b, His-tagged, E. coli BL21 AI, Ni-NTA purified; homotetramer; zinc-dependent medium-chain alcohol dehydrogenase) MAKTMKAAVVREFGKPLTIDEVPVPEPGPGMIQVRIQASGVCHTDLNAAEGDWPVKPNPPFIPGHEGVGFVSAVGAGVKHVKEGDRVGVPWLYTACGHCRHCLGGWETLCESQLNTGYSVNGGFADYVVADPNYVGHLPKNVDFLDIAPVLCAGVTVYKGLKVTDTKPGDWVVISGIGGLGHMAVQYAKAMGMNVAAVDIDDEKLALARKLGATVTVNAATEPDPAAAIRKQTDGGAQGVLVTAVGRKAFEQAIGMVARGGTVALNGLPPGDFPLDIFGMVLNGITVRGSIVGTRLDLQESLDFAGDGKVKATVHKAKLEDINNIFGQMHKGQIEGRMVLDMAG | 53690 ± 4040 | 14.7 ± 0.3 | 274 ± 6 | 67180 ± 8900 | 13.2 ± 0.6 | 197 ± 8 | 230 ± 10 | 25.2 | 108000 |  | 
3 | EtgB (Paracoccus denitrificans PD1222; H47N/T44S) (protein, pET16b, His-tagged, E. coli BL21 AI, Ni-NTA purified; homotetramer; zinc-dependent medium-chain alcohol dehydrogenase) MAKTMKAAVVREFGKPLTIDEVPVPEPGPGMIQVRIQASGVCHSDLNAAEGDWPVKPNPPFIPGHEGVGFVSAVGAGVKHVKEGDRVGVPWLYTACGHCRHCLGGWETLCESQLNTGYSVNGGFADYVVADPNYVGHLPKNVDFLDIAPVLCAGVTVYKGLKVTDTKPGDWVVISGIGGLGHMAVQYAKAMGMNVAAVDIDDEKLALARKLGATVTVNAATEPDPAAAIRKQTDGGAQGVLVTAVGRKAFEQAIGMVARGGTVALNGLPPGDFPLDIFGMVLNGITVRGSIVGTRLDLQESLDFAGDGKVKATVHKAKLEDINNIFGQMHKGQIEGRMVLDMAG | 11510 ± 1470 | 2.9 ± 0.1 | 251 ± 5 | 19750 ± 2980 | 6.5 ± 0.2 | 330 ± 11 | 100 ± 20 | 10.7 | 105000 |  | 
4 | EtgB (Paracoccus denitrificans PD1222; T44S) (protein, pET16b, His-tagged, E. coli BL21 AI, Ni-NTA purified; homotetramer; zinc-dependent medium-chain alcohol dehydrogenase) MAKTMKAAVVREFGKPLTIDEVPVPEPGPGMIQVRIQASGVCHSDLHAAEGDWPVKPNPPFIPGHEGVGFVSAVGAGVKHVKEGDRVGVPWLYTACGHCRHCLGGWETLCESQLNTGYSVNGGFADYVVADPNYVGHLPKNVDFLDIAPVLCAGVTVYKGLKVTDTKPGDWVVISGIGGLGHMAVQYAKAMGMNVAAVDIDDEKLALARKLGATVTVNAATEPDPAAAIRKQTDGGAQGVLVTAVGRKAFEQAIGMVARGGTVALNGLPPGDFPLDIFGMVLNGITVRGSIVGTRLDLQESLDFAGDGKVKATVHKAKLEDINNIFGQMHKGQIEGRMVLDMAG | 10170 ± 360 | 0.7 ± 0.1 | 70.2 ± 2.6 | 27680 ± 1730 | 1.6 ± 0.1 | 57.8 ± 0.7 | 100 ± 20 | 3.2 | 33200 |  | 
5 | EtgA, NAD-dependent aldehyde dehydrogenase (Pden_2366) (enzyme, Paracoccus denitrificans DSM 413, EtgA, NAD-dependent aldehyde dehydrogenase of Paracoccus denitrificans DSM 413, gene Pden_2366 amplified from genomic DNA and cloned into pET16b; also called aldehyde dehydrogenase EtgA; source: E. coli BL21 AI, purified (Ni-NTA, desalting, size exclusion on Superdex 200 Increase)) MPNDQTHPFRGVNALPFEERYDNFIGGEWVAPVSGRYFTNTTPITGAEIGQIARSEAGDIELALDAAHAAKEKWGATSPAERANIMLKIADRMERNLELLATAETWDNGKPIRETMAADLPLAIDHFRYFAGVLRAQEGSISQIDDDTVAYHFHEPLGVVGQIIPWNFPLLMACWKLAPAIAAGNCVVLKPAEQTPAGIMVWANLIGDLLPPGVLNIVNGFGLEAGKPLASSNRIAKIAFTGETTTGRLIMQYASENLIPVTLELGGKSPNIFFADVAREDDDFFDKALEGFTMFALNQGEVCTCPSRVLIQESIYDKFMERAVQRVQAIKQGDPRESDTMIGAQASSEQKEKILSYLDIGKKEGAEVLTGGKAADLGGELSGGYYIEPTIFRGNNKMRIFQEEIFGPVVSVTTFKDQAEALEIANDTLYGLGAGVWSRDANTCYRMGRGIKAGRVWTNCYHAYPAHAAFGGYKQSGIGRETHKMMLDHYQQTKNMLVSYSPKKLGFF |  |  |  |  |  |  |  |  |  | 4 | Km [3, 10]: 120 ± 10 µM; kcat [3, 10]: 6.3 ± 0.2 s⁻¹; kcat/Km [3, 10]: 51300 ± 4900 M⁻¹ s⁻¹; Km [6, 10]: 9 ± 1 µM; kcat [6, 10]: 1.3 ± 0.1 s⁻¹; kcat/Km [6, 10]: 135000 ± 21000 M⁻¹ s⁻¹
